Assay results: article PMC5845931

Tests used:
[1] = target: PepTSt wild type, proton-dependent oligopeptide transporter from Streptococcus thermophilus (Streptococcus thermophilus) (UniProt Q5M4H8); assay: MST; label-free (intrinsic tryptophan fluorescence of PepTSt); 125 nM PepTSt constant, peptide titrated; 22°C; pH 4.5, 100 mM citrate, 150 mM NaCl, 0.03% DDM
[2] = target: PepTSt wild type, proton-dependent oligopeptide transporter from Streptococcus thermophilus (Streptococcus thermophilus) (UniProt Q5M4H8); assay: MST; label-free (intrinsic tryptophan fluorescence of PepTSt); 125 nM PepTSt constant, peptide titrated; 22°C; pH 5.0, 100 mM citrate, 150 mM NaCl, 0.03% DDM
[3] = target: PepTSt wild type, proton-dependent oligopeptide transporter from Streptococcus thermophilus (Streptococcus thermophilus) (UniProt Q5M4H8); assay: MST; label-free (intrinsic tryptophan fluorescence of PepTSt); 125 nM PepTSt constant, peptide titrated; 22°C; pH 5.5, 100 mM citrate, 150 mM NaCl, 0.03% DDM
[4] = target: PepTSt wild type, proton-dependent oligopeptide transporter from Streptococcus thermophilus (Streptococcus thermophilus) (UniProt Q5M4H8); assay: MST; label-free (intrinsic tryptophan fluorescence of PepTSt); 125 nM PepTSt constant, peptide titrated up to the millimolar range; 22°C; pH 7.5, 100 mM NaPi, 150 mM NaCl, 0.03% DDM
[5] = target: PepTSt wild type, proton-dependent oligopeptide transporter from Streptococcus thermophilus (Streptococcus thermophilus) (UniProt Q5M4H8); assay: MST; label-free (intrinsic tryptophan fluorescence of PepTSt); 125 nM PepTSt constant, peptide titrated up to the millimolar range; 22°C; pH 7.5, 100 mM HEPES, 150 mM NaCl, 0.03% DDM
[6] = target: PepTSt wild type, proton-dependent oligopeptide transporter from Streptococcus thermophilus (Streptococcus thermophilus) (UniProt Q5M4H8); assay: MST; label-free (intrinsic tryptophan fluorescence of PepTSt); 125 nM PepTSt constant, peptide titrated up to the millimolar range; 22°C; pH 7.5, 100 mM Tris-HCl, 150 mM NaCl, 0.03% DDM

| Substance | Kd [6] [mM] | other results |
| --- | --- | --- |
| Ala-Gln (peptide) | 6.82 | – |
| Ala-Ala (peptide) | 8.59 | – |
| Ala-Leu (peptide) | – | Kd [1]: > 50 mM; Kd [5]: 0.56 mM |
| Ala-Phe (peptide) | 0.95 | – |

Second part, led by results:

| Kd [6] [mM] | Substance | other results |
| --- | --- | --- |
| 13.8 | Leu-Ala (peptide) | Kd [1]: > 100 mM; Kd [2]: 47 mM; Kd [3]: 23 mM; Kd [4]: 9.56 mM; Kd [5]: 13.3 mM |
| > 50 | Asp-Glu (peptide) | – |
| > 100 | Ala-Asp (peptide) | – |
| 10.9 | Phe-Ala (peptide) | – |
| 3.56 | Leu-Leu (peptide) | – |
